From PMC7199964, “Grifolin, neogrifolin and confluentin from the terricolous polypore Albatrellus flettii suppress KRAS expression in human colon cancer cells” come the findings set out here.

Data set [1] has as its target T1, IMP1 wild type (UniProt Q9NZI8 1-577). Briefly: EMSA; IMP1 0-540 nM; smallest region with affinity; FP: 300 nM IMP1, 10 nM probe (inhibitor assays), binding buffer stock 50 mM Tris-Cl pH 7.4, 12.5 mM EDTA pH 8, 25% glycerol, 0.01% Triton-X, 37 C 30 min; EMSA:
As to conditions: protein: recombinant; (radiolabeled).

The target in data set [2] is T1, IMP1 wild type. Briefly: fluorescence polarization; FP: 300 nM IMP1, 10 nM probe (inhibitor assays), binding buffer stock 50 mM Tris-Cl pH 7.4, 12.5 mM EDTA pH 8, 25% glycerol, 0.01% Triton-X, 37 C 30 min; EMSA:
To be noted: protein: recombinant; label: 3' 6-FL (fluorescein).

The target of data set [3] is KH1to4 IMP1 (UniProt Q9NZI8 195-553). The data set is described as above. As to conditions: protein: recombinant; label: 3' 6-FL (fluorescein).
Sequence of KH1to4 IMP1 (Q9NZI8 195-553): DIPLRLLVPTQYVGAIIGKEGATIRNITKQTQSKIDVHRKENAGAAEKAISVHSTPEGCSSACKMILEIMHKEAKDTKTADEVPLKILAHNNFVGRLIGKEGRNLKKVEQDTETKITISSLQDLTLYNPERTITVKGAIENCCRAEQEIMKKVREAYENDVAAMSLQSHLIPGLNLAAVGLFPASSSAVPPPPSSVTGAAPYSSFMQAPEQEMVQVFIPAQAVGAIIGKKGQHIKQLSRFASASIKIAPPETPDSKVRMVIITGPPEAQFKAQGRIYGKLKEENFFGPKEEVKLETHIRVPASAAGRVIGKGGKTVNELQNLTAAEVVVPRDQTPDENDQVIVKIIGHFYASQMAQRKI
In data set [4] the target is KH3&4 IMP1 (KH34) (UniProt Q9NZI8 405-553). Briefly: fluorescence polarization; confluentin, no effect; FP: 300 nM IMP1, 10 nM probe (inhibitor assays), binding buffer stock 50 mM Tris-Cl pH 7.4, 12.5 mM EDTA pH 8, 25% glycerol, 0.01% Triton-X, 37 C 30 min; EMSA:
As to conditions: protein: recombinant; label: 3' 6-FL (fluorescein).

Data set [5] concerns the target T1, IMP1 wild type. The data set is described as follows: fluorescence polarization; grifolin up to 100 uM, no effect; FP: 300 nM IMP1, 10 nM probe (inhibitor assays), binding buffer stock 50 mM Tris-Cl pH 7.4, 12.5 mM EDTA pH 8, 25% glycerol, 0.01% Triton-X, 37 C 30 min; EMSA:
To be noted: protein: recombinant; label: 3' 6-FL (fluorescein).

T1 sequence (Q9NZI8 whole entry): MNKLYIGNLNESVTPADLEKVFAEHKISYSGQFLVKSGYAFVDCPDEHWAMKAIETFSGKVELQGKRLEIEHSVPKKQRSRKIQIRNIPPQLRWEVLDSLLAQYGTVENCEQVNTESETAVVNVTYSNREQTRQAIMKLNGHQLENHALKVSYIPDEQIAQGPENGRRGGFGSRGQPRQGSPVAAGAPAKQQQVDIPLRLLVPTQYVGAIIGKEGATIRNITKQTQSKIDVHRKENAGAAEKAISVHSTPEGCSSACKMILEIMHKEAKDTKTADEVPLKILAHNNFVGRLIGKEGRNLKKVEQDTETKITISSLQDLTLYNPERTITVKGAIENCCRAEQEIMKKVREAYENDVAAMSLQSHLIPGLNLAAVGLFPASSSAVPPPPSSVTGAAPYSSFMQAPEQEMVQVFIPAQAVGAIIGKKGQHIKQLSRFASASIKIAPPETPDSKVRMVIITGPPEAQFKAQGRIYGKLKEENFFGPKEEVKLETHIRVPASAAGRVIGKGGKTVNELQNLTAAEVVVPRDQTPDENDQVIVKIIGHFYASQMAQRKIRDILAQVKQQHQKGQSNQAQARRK
Sequence of KH3&4 IMP1 (KH34) (Q9NZI8 405-553): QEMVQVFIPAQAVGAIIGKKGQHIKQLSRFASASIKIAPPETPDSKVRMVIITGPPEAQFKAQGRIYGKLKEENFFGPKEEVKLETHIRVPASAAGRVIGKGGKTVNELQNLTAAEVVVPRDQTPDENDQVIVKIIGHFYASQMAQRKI

B1: 39-nt KRAS RNA nts 147-185 (ssRNA)
RNA: GAAACCUGUCUCUUGGAUAUUCUCGACACAGCAGGUCAU
Consider B1, for which the binding result in data set [1] is recorded as “binds”.

B2: 39-nt CD44 RNA (nts 2862-2900) (ssRNA)
RNA: AAAUUAGGGCCCAAUUAAUAAUCAGCAAGAAUUUGAUCG
For B2, in data set [2], the binding result is “binds”.

B3: 44-nt KRAS RNA (nts 142-185) (ssRNA)
RNA: AUGGAGAAACCUGUCUCUUGGAUAUUCUCGACACAGCAGGUCAU
As for B3, the binding result in data set [3], in data set [4] and in data set [5] was “binds” in each case.
